Legend:
HLA-A*24:02 = experiment: IEDB peptide-MHC binding, purified MHC/competitive/radioactivity; filed as Kd, often an IC50 or EC50 that approximates it; ≥ and ≤ were set here for values at or beyond the usual limits of such assays
HLA-A*29:02 = experiment: as above
HLA-A*23:01 = experiment: as above
HLA-A*26:01 [1] = experiment: as above
HLA-A*30:02 = experiment: as above
HLA-A*01:01 [2] = experiment: as above
HLA-A*30:01 = experiment: as above; conditions: source organism: Mammarenavirus brazilense
HLA-A*32:01 = experiment: as above; conditions: source organism: Mammarenavirus brazilense
HLA-B*08:01 = experiment: IEDB peptide-MHC binding, purified MHC/direct/fluorescence; filed as Kd, often an IC50 or EC50 that approximates it; ≥ and ≤ were set here for values at or beyond the usual limits of such assays; conditions: source organism: Giardia lamblia ATCC 50803
HLA-B*27:05 = experiment: as above; conditions: source organism: Giardia lamblia ATCC 50803
HLA-A*24:03 = experiment: as above; conditions: source organism: Giardia lamblia ATCC 50803
HLA-A*69:01 = experiment: as above; conditions: source organism: Giardia lamblia ATCC 50803
HLA-B*58:01 = experiment: as above; conditions: source organism: Giardia lamblia ATCC 50803
HLA-B*40:01 [3] = experiment: as above; conditions: source organism: Giardia lamblia ATCC 50803
HLA-A*31:01 = experiment: as above; conditions: source organism: Giardia lamblia ATCC 50803
HLA-A*03:01 = experiment: as above; conditions: source organism: Giardia lamblia ATCC 50803
HLA-B*44:02 = experiment: as above; conditions: source organism: Giardia lamblia ATCC 50803
HLA-A*26:01 [4] = experiment: as above; conditions: source organism: Giardia lamblia ATCC 50803
HLA-B*15:01 [5] = experiment: as above; conditions: source organism: Giardia lamblia ATCC 50803
HLA-A*02:01 = experiment: as above; conditions: source organism: Giardia lamblia ATCC 50803
HLA-A*01:01 [6] = experiment: as above; conditions: source organism: Giardia lamblia ATCC 50803
HLA-A*11:01 = experiment: as above; conditions: source organism: Giardia lamblia ATCC 50803
HLA-B*15:01 [7] = experiment: IEDB peptide-MHC binding, purified MHC/competitive/fluorescence; filed as Kd, often an IC50 or EC50 that approximates it; ≥ and ≤ were set here for values at or beyond the usual limits of such assays; conditions: source organism: Bacillus cereus G9241
HLA-B*40:01 [8] = experiment: IEDB peptide-MHC binding, purified MHC/competitive/radioactivity; filed as Kd, often an IC50 or EC50 that approximates it; ≥ and ≤ were set here for values at or beyond the usual limits of such assays
[9] = source organism: SARS coronavirus Tor2
[10] = source organism: Mammarenavirus brazilense
[11] = source organism: Lassa virus Josiah
[12] = source organism: Mammarenavirus juninense
[13] = source organism: Dengue virus 2 Jamaica/1409/1983

## LFTKFFYLL
HLA-A*24:02; [9]
  Kd: 0.11 µM
HLA-A*29:02; [9]
  Kd: 6.96 µM
HLA-A*23:01; [9]
  Kd: 0.154 µM
HLA-A*26:01 [1]; [9]
  Kd: ≥ 38.1 µM
HLA-A*30:02; [9]
  Kd: ≥ 83.3 µM
HLA-A*01:01 [2]; [9]
  Kd: ≥ 78.1 µM

## LSEMLNKEY
HLA-A*30:01
  Kd: 9.77 µM
HLA-A*32:01
  Kd: ≥ 77.8 µM
HLA-A*29:02; [10]
  Kd: 5.72 µM
HLA-A*26:01 [1]; [10]
  Kd: ≥ 77.9 µM
HLA-A*30:02; [10]
  Kd: 14.7 µM
HLA-A*01:01 [2]; [10]
  Kd: 0.00525 µM

## LTGHMLDMY
HLA-A*24:02; [9]
  Kd: ≥ 77.6 µM
HLA-A*29:02; [9]
  Kd: 0.0611 µM
HLA-A*23:01; [9]
  Kd: ≥ 77.8 µM
HLA-A*26:01 [1]; [9]
  Kd: 10.5 µM
HLA-A*30:02; [9]
  Kd: 0.0728 µM
HLA-A*01:01 [2]; [9]
  Kd: 0.000563 µM

## NAAISDYDYY
HLA-A*24:02; [9]
  Kd: ≥ 70.3 µM
HLA-A*29:02; [9]
  Kd: 0.688 µM
HLA-A*23:01; [9]
  Kd: ≥ 70 µM
HLA-A*26:01 [1]; [9]
  Kd: 1.64 µM
HLA-A*30:02; [9]
  Kd: 0.274 µM
HLA-A*01:01 [2]; [9]
  Kd: 0.0124 µM

## PEDPVEIALY
HLA-A*24:02; [11]
  Kd: ≥ 70.3 µM
HLA-A*29:02; [11]
  Kd: 15 µM
HLA-A*23:01; [11]
  Kd: ≥ 70 µM
HLA-A*26:01 [1]; [11]
  Kd: ≥ 69.7 µM
HLA-A*30:02; [11]
  Kd: 0.961 µM
HLA-A*01:01 [2]; [11]
  Kd: ≥ 34.4 µM

## PPQATAKYL
HLA-B*08:01
  Kd: ≥ 20 µM
HLA-B*27:05
  Kd: ≥ 20 µM
HLA-A*24:03
  Kd: 9.66 µM
HLA-A*69:01
  Kd: ≥ 20 µM
HLA-B*58:01
  Kd: ≥ 20 µM
HLA-B*40:01 [3]
  Kd: ≥ 20 µM
HLA-A*31:01
  Kd: ≥ 20 µM
HLA-A*03:01
  Kd: ≥ 20 µM
HLA-B*44:02
  Kd: ≥ 20 µM
HLA-A*26:01 [4]
  Kd: ≥ 20 µM
HLA-B*15:01 [5]
  Kd: ≥ 20 µM
HLA-A*02:01
  Kd: ≥ 20 µM
HLA-A*01:01 [6]
  Kd: ≥ 20 µM
HLA-A*11:01
  Kd: ≥ 20 µM

## RKIKAITSF
HLA-B*15:01 [7]
  Kd: 1.88 µM

## RYYDGNIYDL
HLA-A*24:02; source organism: Variola virus
  Kd: 0.0879 µM
HLA-A*29:02; source organism: Variola virus
  Kd: ≥ 61.8 µM
HLA-A*23:01; source organism: Variola virus
  Kd: 0.0135 µM
HLA-A*26:01 [1]; source organism: Variola virus
  Kd: ≥ 69.7 µM
HLA-A*30:02; source organism: Variola virus
  Kd: 0.0152 µM
HLA-A*01:01 [2]; source organism: Variola virus
  Kd: 2.61 µM

## SCDFNGGKI
HLA-A*24:02; [11]
  Kd: ≥ 77.5 µM
HLA-A*29:02; [11]
  Kd: ≥ 78.9 µM
HLA-A*23:01; [11]
  Kd: ≥ 77.7 µM
HLA-A*26:01 [1]; [11]
  Kd: ≥ 77.9 µM
HLA-A*30:02; [11]
  Kd: ≥ 76.9 µM
HLA-A*01:01 [2]; [11]
  Kd: ≥ 23.2 µM

## SMRSVQRNTV
HLA-A*24:02; [12]
  Kd: ≥ 70.3 µM
HLA-A*29:02; [12]
  Kd: ≥ 71.4 µM
HLA-A*23:01; [12]
  Kd: ≥ 70 µM
HLA-A*26:01 [1]; [12]
  Kd: ≥ 69.7 µM
HLA-A*30:02; [12]
  Kd: 7.86 µM
HLA-A*01:01 [2]; [12]
  Kd: 2.99 µM

## TEHGTTATI
HLA-B*40:01 [8]; source organism: Dengue virus 1 Nauru/West Pac/1974
  Kd: 0.0571 µM

## TEIQMSSGNL
HLA-B*40:01 [8]; [13]
  Kd: 0.00703 µM

## TEWCCRSCTL
HLA-B*40:01 [8]; [13]
  Kd: 0.00995 µM

## TSTGNYNYKY
HLA-A*24:02; [9]
  Kd: ≥ 70.3 µM
HLA-A*29:02; [9]
  Kd: 0.294 µM
HLA-A*23:01; [9]
  Kd: ≥ 70 µM
HLA-A*26:01 [1]; [9]
  Kd: 1.26 µM
HLA-A*30:02; [9]
  Kd: 0.0423 µM
HLA-A*01:01 [2]; [9]
  Kd: 0.0965 µM

## VEEQDANFV
HLA-B*40:01 [8]; source organism: Dengue virus 1 Brazil/97-11/1997
  Kd: 0.412 µM

## VFNNYMPYVF
HLA-A*24:02; [9]
  Kd: 0.0112 µM
HLA-A*29:02; [9]
  Kd: 0.00922 µM
HLA-A*23:01; [9]
  Kd: 0.00832 µM
HLA-A*26:01 [1]; [9]
  Kd: ≥ 21.6 µM
HLA-A*30:02; [9]
  Kd: 7.11 µM
HLA-A*01:01 [2]; [9]
  Kd: ≥ 20.6 µM

## WEGGHDLTV
HLA-B*40:01 [8]; source organism: Dengue virus 4 Philippines/H241/1956
  Kd: 1.85 µM

## YYCKSHKPPI
HLA-A*24:02; [9]
  Kd: 0.193 µM
HLA-A*29:02; [9]
  Kd: 1.62 µM
HLA-A*23:01; [9]
  Kd: 0.207 µM
HLA-A*26:01 [1]; [9]
  Kd: ≥ 69.7 µM
HLA-A*30:02; [9]
  Kd: 11.5 µM
HLA-A*01:01 [2]; [9]
  Kd: ≥ 48.3 µM

## YYPSARIVY
HLA-A*24:02; [9]
  Kd: ≥ 105 µM
HLA-A*29:02; [9]
  Kd: ≥ 88.2 µM
HLA-A*23:01; [9]
  Kd: ≥ 84.5 µM
HLA-A*26:01 [1]; [9]
  Kd: 1.37 µM
HLA-A*30:02; [9]
  Kd: ≥ 78.9 µM
HLA-A*01:01 [2]; [9]
  Kd: ≥ 45.5 µM

Reference: the Immune Epitope Database (IEDB)
